Source: patent US8822407B2, “Preparation of conjugates comprising adenine derivatives and allergenic proteins and their use for specific immunotherapy of allengenic diseases” (Universita' Degli Studi di Firenze, priority 2010, dated 2014)

Experiments:
[1] = system: purified CD14+ cells; assay: Cytokine production by purified CD14+ cells (ELISA of supernatants, 36 hrs); type: cell-based, human; settings: for IL-6 production / IL-10 production / IL-12p40 production / TNF-alfa production: Table E
Description: Circulating mononuclear cells (MNC) are isolated by density gradient (Ficoll-Hypaque) using buffy coats from 14 normal donors (Servizio Immunotrasfusionale e terapie cellulari, Azienda Ospedaliera Universitaria A. Meyer, Firenze). 200×10^6 MNC are separated by the use of a commercial kit (CD14 isolation kit, Miltenyi) by the addition of 400 μl anti-CD14 monoclonal antibody bound to iron beads followed by isolation on magnetic columns (LS column). 50×10^6 monocytes are recovered by positive selection and are extensively washed with calcium and magnesium-free sterile PBS and then seeded in complete medium plus 10% foetal calf serum in 24 flat bottomed plates at the concentration of 1×10^6/ml. […] The plates are incubated for 36 hrs at 37° C. in 5% CO2 humidified atmosphere and the supernatants are collected after centrifugation at 1200 rpm, aliquoted and then stored at −20° C. up to the assay. […]
(§1) For the determination of cytokines and chemokines of the innate immunity, commercial ELISAs have been used: IL-12p40 (Cytoscreen, Biosource Int, Camarillo, Calif.), IFN-alfa (Cytoscreen), TNF-alfa (Cytoscreen), IL-10 (Pharmingen), IL-6 and CXCL10 (R&D System). 100 μl/well of single supernatants are incubated in flat bottomed plates as specified by the productors and the amounts of the single cytokines are expressed as pg/ml on the basis of a reference curve by using recombinant cytokines.

[2] = system: purified BDCA4+ cells; assay: Cytokine production by purified BDCA4+ cells (plasmacytoid dendritic cells), ELISA; type: cell-based, human; settings: for IFN-alfa production / IL-6 production / IL-10 production / TNF-alfa production: Table F
Description: The preparation of purified BDCA4+ cells has been obtained in a similar way starting from MNC of buffy coats of the same 14 healthy donors. […] By positive selection 5×10^6 plasmacytoid dendritic cells (PDCs) are recovered, extensively washed with calcium and magnesium-free sterile PBS and seeded in complete medium plus 10% foetal calf serum in 24-flat bottomed plates at the concentration 1×10^6/ml. […] The plates are incubated for 36 hrs at 37° C. in 5% CO2 humidified atmosphere and the supernatants are collected after centrifugation at 1200 rpm, aliquoted and then stored at −20° C. up to the assay. […]
as §1

[3] = biological target: T1, human TLR7 (Homo sapiens, UniProt Q9NYK1); assay: TLR7 activation, NF-kB luciferase reporter in transfected HEK293 cells; type: cell-based; settings: human TLR7-encoding plasmid
T1 construct: expressed in transfected cells; host or cells: HEK293 (transient Nucleofection, Amaxa)
T1 sequence (Q9NYK1 27-1049): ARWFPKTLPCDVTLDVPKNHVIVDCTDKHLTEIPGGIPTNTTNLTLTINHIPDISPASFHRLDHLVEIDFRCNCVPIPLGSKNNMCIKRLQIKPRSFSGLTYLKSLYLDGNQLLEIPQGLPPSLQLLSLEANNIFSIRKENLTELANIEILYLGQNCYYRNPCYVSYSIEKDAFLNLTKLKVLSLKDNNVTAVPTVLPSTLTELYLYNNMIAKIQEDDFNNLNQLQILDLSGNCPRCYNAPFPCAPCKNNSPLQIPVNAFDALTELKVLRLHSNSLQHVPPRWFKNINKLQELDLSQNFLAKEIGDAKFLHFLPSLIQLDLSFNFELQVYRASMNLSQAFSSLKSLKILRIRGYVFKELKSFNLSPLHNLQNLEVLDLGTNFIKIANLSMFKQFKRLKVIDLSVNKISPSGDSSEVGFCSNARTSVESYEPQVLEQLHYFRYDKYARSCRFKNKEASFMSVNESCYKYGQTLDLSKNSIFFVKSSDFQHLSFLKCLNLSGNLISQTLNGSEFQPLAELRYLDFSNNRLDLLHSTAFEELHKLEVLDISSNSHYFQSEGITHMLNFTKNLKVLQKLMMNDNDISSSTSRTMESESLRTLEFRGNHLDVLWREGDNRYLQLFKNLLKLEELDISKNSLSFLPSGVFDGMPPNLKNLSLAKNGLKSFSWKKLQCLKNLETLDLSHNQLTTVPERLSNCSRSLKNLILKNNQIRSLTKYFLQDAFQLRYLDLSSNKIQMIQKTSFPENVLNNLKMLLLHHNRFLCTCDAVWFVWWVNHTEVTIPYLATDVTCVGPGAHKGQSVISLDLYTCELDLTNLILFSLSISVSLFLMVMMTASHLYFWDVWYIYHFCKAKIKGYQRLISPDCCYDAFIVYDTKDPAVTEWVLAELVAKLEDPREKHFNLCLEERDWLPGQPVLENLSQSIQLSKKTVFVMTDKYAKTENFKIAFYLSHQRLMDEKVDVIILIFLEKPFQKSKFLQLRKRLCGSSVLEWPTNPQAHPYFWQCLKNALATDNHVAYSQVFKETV
Description: HEK293 cells are detached by trypsin from the plastic surface of the culture bottle, extensively washed with calcium and magnesium-free PBS, counted and adjusted at the concentration 1×10^6 cells/tube in polypropylene V-bottomed tubes. After the final wash, the cells are pelleted and 100 μl transfection buffer (Amaxa) is added together with […], TLR7, TLR8 or TLR9-encoding and ELAM-1 promoter NF-kB luciferase reporter plasmids. The mixture thus obtained is transferred in special cuvettes and transient transfection is obtained in a special apparatus which is able to directly introduce genetic material into the nucleus (Nucleofection®, Amaxa GmbH). The cells are then recovered and cultured at 1×10^5/ml in 48-flat bottomed plates in E-MEM medium plus 5% foetal calf serum for 18 hrs. […] Finally the luciferase activity is measured in the cellular lysates by a commercial kit (Promega).

B1: nDer p2: purified natural allergen Der p2, major allergen from the house dust mite Dermatophagoides pteronyssinus (protein, UniProt P49278 18-146, looked up)
Mite group 2 allergen Der p 2: DQVDVKDCANHEIKKVLVPGCHGSEPCIIHRGKPFQLEAVFEANQNTKTAKIEIKASIDGLEVDVPGIDPNACHYMKCPLVKGQQYDIKYTWNVPKIAPKSENVVVTVKVMGDDGVLACAIATHAKIRD
modifications: natural purified
notes: purified natural allergen Der p2, major allergen from the house dust mite Dermatophagoides pteronyssinus
**Q.** For B1, which “IL-6 production (mean ± SE)” value ([1]; Table B, dose 10 μg/ml) is on record?
**A.** 0 ± 0 ng/mL

**Q.** What about the “IL-10 production (mean ± SE)” value ([1]; Table B, dose 10 μg/ml) of the same molecule?
**A.** 0.4 ± 0.4 ng/mL

**Q.** And the “IL-12p40 production (mean ± SE)” value ([1]; Table B, dose 10 μg/ml)?
**A.** 0 ± 0 ng/mL

**Q.** What about the “TNF-alfa production (mean ± SE)” value ([1]; Table B, dose 10 μg/ml) of the same molecule?
**A.** 0.05 ± 0.06 ng/mL

**Q.** And the IL-6 production ([1]; Donor #1, dose 10 μg/ml)?
**A.** 0 pg/mL

**Q.** And the IL-10 production ([1]; Donor #1, dose 10 μg/ml)?
**A.** 0 pg/mL

**Q.** And the IL-12p40 production ([1]; Donor #1, dose 10 μg/ml)?
**A.** 0 pg/mL

**Q.** What about the TNF-alfa production ([1]; Donor #1, dose 10 μg/ml) of the same molecule?
**A.** 218 pg/mL

**Q.** What about the IL-6 production ([1]; Donor #2, dose 10 μg/ml) of the same molecule?
**A.** 0 pg/mL

**Q.** What about the IL-10 production ([1]; Donor #2, dose 10 μg/ml) of the same molecule?
**A.** 0 pg/mL

**Q.** And the IL-12p40 production ([1]; Donor #2, dose 10 μg/ml)?
**A.** 0 pg/mL

**Q.** What about the TNF-alfa production ([1]; Donor #2, dose 10 μg/ml) of the same molecule?
**A.** 0 pg/mL

**Q.** What about the “cytokine production from purified CD14+ cells (in words)” value ([1]; text to Tables A and B) of the same molecule?
**A.** essentially unable to induce the production of valuable cytokines

**Q.** What about the “IFN-alfa production (mean ± SE)” value ([2]; Table D, dose 10 μg/ml) of the same molecule?
**A.** 0.07 ± 0.06 ng/mL

**Q.** What about the “IL-6 production (mean ± SE)” value ([2]; Table D, dose 10 μg/ml) of the same molecule?
**A.** 0 ± 0 ng/mL

**Q.** What about the “IL-10 production (mean ± SE)” value ([2]; Table D, dose 10 μg/ml) of the same molecule?
**A.** 0 ± 0 ng/mL

**Q.** What about the “TNF-alfa production (mean ± SE)” value ([2]; Table D, dose 10 μg/ml) of the same molecule?
**A.** 0.03 ± 0.02 ng/mL

**Q.** What about the IFN-alfa production ([2]; Donor #1, dose 10 μg/ml) of the same molecule?
**A.** 0 pg/mL

**Q.** And the IL-6 production ([2]; Donor #1, dose 10 μg/ml)?
**A.** 0 pg/mL

**Q.** And the IL-10 production ([2]; Donor #1, dose 10 μg/ml)?
**A.** 0 pg/mL

**Q.** And the TNF-alfa production ([2]; Donor #1, dose 10 μg/ml)?
**A.** 0 pg/mL

**Q.** And the IFN-alfa production ([2]; Donor #2, dose 10 μg/ml)?
**A.** 0 pg/mL

**Q.** And the IL-6 production ([2]; Donor #2, dose 10 μg/ml)?
**A.** 0 pg/mL

**Q.** What about the IL-10 production ([2]; Donor #2, dose 10 μg/ml) of the same molecule?
**A.** 0 pg/mL

**Q.** What about the TNF-alfa production ([2]; Donor #2, dose 10 μg/ml) of the same molecule?
**A.** 0 pg/mL

**Q.** And the “TLR7 activation (NF-κB luciferase) in transfected HEK293 cells” value [3]?
**A.** lack any activity
